In patent publication US6344321:

Target: HGF (hepatocyte growth factor/scatter factor) (UniProt P14210+P14210)
Assay: filter
Conditions: 2'-F pyrimidines

HGF (hepatocyte growth factor/scatter factor), sequence (P14210 32-494, chain 1 of 2): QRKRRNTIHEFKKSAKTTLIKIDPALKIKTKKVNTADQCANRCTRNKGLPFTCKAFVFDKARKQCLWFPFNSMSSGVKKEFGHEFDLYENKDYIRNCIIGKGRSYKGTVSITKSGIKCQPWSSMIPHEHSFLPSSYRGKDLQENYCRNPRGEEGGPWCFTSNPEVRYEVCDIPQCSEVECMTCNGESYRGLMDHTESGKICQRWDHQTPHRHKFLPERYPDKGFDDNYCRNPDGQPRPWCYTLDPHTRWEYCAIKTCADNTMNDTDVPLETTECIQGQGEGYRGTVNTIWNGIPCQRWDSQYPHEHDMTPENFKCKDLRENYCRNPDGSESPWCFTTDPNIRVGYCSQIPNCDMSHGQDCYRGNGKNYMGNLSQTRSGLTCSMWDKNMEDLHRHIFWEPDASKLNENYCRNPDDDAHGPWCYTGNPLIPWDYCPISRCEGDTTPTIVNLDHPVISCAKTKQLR
HGF (hepatocyte growth factor/scatter factor), sequence (P14210 495-728, chain 2 of 2): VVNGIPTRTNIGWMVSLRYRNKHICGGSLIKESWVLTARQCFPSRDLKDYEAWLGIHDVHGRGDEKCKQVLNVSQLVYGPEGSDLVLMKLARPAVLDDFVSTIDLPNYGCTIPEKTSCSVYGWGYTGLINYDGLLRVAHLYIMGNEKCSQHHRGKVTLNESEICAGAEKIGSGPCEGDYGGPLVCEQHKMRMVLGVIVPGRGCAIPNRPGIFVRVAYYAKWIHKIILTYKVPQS

Row | Sequence | Kd (one or two 5' G, one N in printed sequence) [nM] | Kd (random pool, 550 nM with competitor tRNA) [nM]
1 | GGAGAGNUCCUAUUUAUGACAUCCCAUGCCCCCA [Tr65] | 1.4 | 
2 | GGGAGGACGAUGCGGNNNNNNNNNNNNNNNNNNNNNNNNNNNNNNCAGACGACUCGCCCGA [random 30N7 pool] |  | 1.6
